The first experiment has as its target T1, Yhr016c SH3 (YSC84_YEAST), P32793.
T1 chain: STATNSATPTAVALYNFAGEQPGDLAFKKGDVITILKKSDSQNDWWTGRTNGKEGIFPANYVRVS
Briefly: SPOT array.
Chain of Sho1 SH3 (SHO1_YEAST), P40073 (P40073 295-366): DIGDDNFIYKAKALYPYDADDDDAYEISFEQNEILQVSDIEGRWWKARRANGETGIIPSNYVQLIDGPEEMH
Regarding IFVTRYLPYFPIMY [YBL066C 354-367], the normalised SPOT signal, Boehringer light units (BLU); mean over the file's lines of this peptide was 180.
On the same count and under the same terms, the value for IGSPRHAPSRPDSI [YOL138C 1121-1134] was 57.9; that for ILERKNIPRQPAIR [YDL034W 13-26] was 35.3.
Still for that read-out and setting: the same measure for IESLREIPYGPDFD [YML105C 200-213]: 1.9; for IESFRERPLEPPRK [YDR448W 138-151]: 88.1.
Same read-out and setting: the same measure for ILAVKKNPQSPMYT [YER126C 197-210]: 22.6.
On to ILKNRMNPEKPYEL [YBL034C 850-863], for which the normalised SPOT signal, Boehringer light units (BLU); mean over the file's lines of this peptide turned out to be 55.5.

Another experiment has as its target T2, Myo5 SH3 (MYO5_YEAST), Q04439.
T2 chain: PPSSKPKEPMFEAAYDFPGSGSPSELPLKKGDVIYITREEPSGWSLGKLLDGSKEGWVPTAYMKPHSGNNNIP
Briefly: SPOT array.
Consider IFVTRYLPYFPIMY [YBL066C 354-367], for which the normalised SPOT signal, Boehringer light units (BLU); mean over the file's lines of this peptide was 157.
IGSPRHAPSRPDSI [YOL138C 1121-1134] registered a normalised SPOT signal, Boehringer light units (BLU); mean over the file's lines of this peptide of 193.
The molecule ILERKNIPRQPAIR [YDL034W 13-26] came in with a normalised SPOT signal, Boehringer light units (BLU); mean over the file's lines of this peptide of 603.
Still for that read-out and setting: the value for IESLREIPYGPDFD [YML105C 200-213] was 116; that for IESFRERPLEPPRK [YDR448W 138-151] was 98.7; that for ILAVKKNPQSPMYT [YER126C 197-210] was 175.
As to ILKNRMNPEKPYEL [YBL034C 850-863], the normalised SPOT signal, Boehringer light units (BLU); mean over the file's lines of this peptide turned out to be 322.

The next experiment has as its target T3, Boi2 SH3 (BOI2_YEAST), P39969.
T3 chain: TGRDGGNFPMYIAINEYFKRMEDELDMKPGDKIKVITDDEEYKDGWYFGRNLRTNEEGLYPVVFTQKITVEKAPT
The experiment can be described thus: SPOT array.
The molecule IFVTRYLPYFPIMY [YBL066C 354-367] had a normalised SPOT signal, Boehringer light units (BLU); mean over the file's lines of this peptide of 1150.
Same read-out and setting: the value for IGSPRHAPSRPDSI [YOL138C 1121-1134] was 28.1.
Still for that read-out and setting: the value for ILERKNIPRQPAIR [YDL034W 13-26] was 19.9; that for IESLREIPYGPDFD [YML105C 200-213] was 22.
Still for that read-out and setting: the same measure for IESFRERPLEPPRK [YDR448W 138-151]: 120; for ILAVKKNPQSPMYT [YER126C 197-210]: 26.2; for ILKNRMNPEKPYEL [YBL034C 850-863]: 149.

A further experiment has as its target T4, Rvs167 SH3 (RV167_YEAST), P39743.
T4 chain: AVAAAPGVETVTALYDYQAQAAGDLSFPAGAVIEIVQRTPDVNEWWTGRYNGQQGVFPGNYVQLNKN
The experiment can be described thus: SPOT array.
In turn, IFVTRYLPYFPIMY [YBL066C 354-367] displayed a normalised SPOT signal, Boehringer light units (BLU); mean over the file's lines of this peptide of 373.
Still for that read-out and setting: the same measure for IGSPRHAPSRPDSI [YOL138C 1121-1134]: 124; for ILERKNIPRQPAIR [YDL034W 13-26]: 138.
Consider IESLREIPYGPDFD [YML105C 200-213], for which the normalised SPOT signal, Boehringer light units (BLU); mean over the file's lines of this peptide was determined as 14.9.
Same read-out and setting: the same measure for IESFRERPLEPPRK [YDR448W 138-151]: 163; for ILAVKKNPQSPMYT [YER126C 197-210]: 26.4; for ILKNRMNPEKPYEL [YBL034C 850-863]: 240.

For another experiment, the target named is T5, Boi1 SH3 (BOI1_YEAST), P38041.
T5 chain: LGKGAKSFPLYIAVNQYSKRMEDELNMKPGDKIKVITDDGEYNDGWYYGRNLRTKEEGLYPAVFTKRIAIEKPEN
Briefly: SPOT array.
Turning to IFVTRYLPYFPIMY [YBL066C 354-367], the normalised SPOT signal, Boehringer light units (BLU); mean over the file's lines of this peptide stood at 60.7.
Same read-out and setting: the value for IGSPRHAPSRPDSI [YOL138C 1121-1134] was 182; that for ILERKNIPRQPAIR [YDL034W 13-26] was 1780; that for IESLREIPYGPDFD [YML105C 200-213] was 16.4.
Same read-out and setting: the same measure for IESFRERPLEPPRK [YDR448W 138-151]: 46.7.
Molecule ILAVKKNPQSPMYT [YER126C 197-210] gave a normalised SPOT signal, Boehringer light units (BLU); mean over the file's lines of this peptide of 128.
ILKNRMNPEKPYEL [YBL034C 850-863] had a normalised SPOT signal, Boehringer light units (BLU); mean over the file's lines of this peptide of 327.

Another experiment concerns the target Sho1 SH3 (SHO1_YEAST), P40073. The experiment can be described thus: SPOT array.
Turning to IFVTRYLPYFPIMY [YBL066C 354-367], the normalised SPOT signal, Boehringer light units (BLU); mean over the file's lines of this peptide stood at 115.
The same measure, in the same setting: the same measure for IGSPRHAPSRPDSI [YOL138C 1121-1134]: 18.4.
On the same count and under the same terms, the same measure for ILERKNIPRQPAIR [YDL034W 13-26]: 99.1; for IESLREIPYGPDFD [YML105C 200-213]: 47.7; for IESFRERPLEPPRK [YDR448W 138-151]: 55.1.
The molecule ILAVKKNPQSPMYT [YER126C 197-210] showed a normalised SPOT signal, Boehringer light units (BLU); mean over the file's lines of this peptide of 25.9.
Same read-out and setting: the same measure for ILKNRMNPEKPYEL [YBL034C 850-863]: 100.

For another experiment, the target named is T6, Yfr024 SH3 (LSB3_YEAST), P43603.
T6 chain: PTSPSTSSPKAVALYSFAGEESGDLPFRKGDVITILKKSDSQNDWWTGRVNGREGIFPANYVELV
Briefly: SPOT array.
For IFVTRYLPYFPIMY [YBL066C 354-367], the normalised SPOT signal, Boehringer light units (BLU); mean over the file's lines of this peptide turned out to be 674.
Same read-out and setting: the value for IGSPRHAPSRPDSI [YOL138C 1121-1134] was 1010.
Same read-out and setting: the value for ILERKNIPRQPAIR [YDL034W 13-26] was 354.
The same measure, in the same setting: the value for IESLREIPYGPDFD [YML105C 200-213] was 2.6; that for IESFRERPLEPPRK [YDR448W 138-151] was 2680.
For ILAVKKNPQSPMYT [YER126C 197-210], the normalised SPOT signal, Boehringer light units (BLU); mean over the file's lines of this peptide is 69.6.
In turn, ILKNRMNPEKPYEL [YBL034C 850-863] returned a normalised SPOT signal, Boehringer light units (BLU); mean over the file's lines of this peptide of 348.

The values above are taken from article PMC314469, “Protein Interaction Networks by Proteome Peptide Scanning” (PLoS Biology, 2004).
